# B1: LINE1-full (parent)
# chain: UACGUAGGUGGUUUUCCCCUGAUAGUGCUAAGGGGGCCUGGAAGUUUGGACUGGGCAGAGCUCAACACAGCGUGGCAAAGUGGCUGUGGCUAGACUGCCUCUCUGGAUUCCUCGUCACUCAGCAGGGCAUCUCUGAGAGAAAUGCC
# Variants of: B1
# Assay: self-cleavage, relative activity (ratio to wild type); higher = more cleavage; in vitro, sequencing; the parent is a self-cleaving ribozyme
row,Variant,self-cleavage
1,UGCGUAGGUGGUUUUCCCCUGAUAGUGCUAAGGGGGCCUGGAAGUUUGGACUGGGCAGAGCUCAACGCAGCGUGGCAAAGUGGCUGUGGCUAGACUGCCUCUCUGGAUUCCUCGUCACUCAGCAGGGCAUCUCUGAGAGAAAUGCC [A2G A67G],0.41
2,UACGUAGGUGGUUUUCCCCUGAUAGUGCUAAGGGGGCCUGGAAGUUUGGACUGGGCAGAGCUCAACACAGCGUGGCAAAGUGGCUGUGGCUUGACUGCCUCUCUGGCUUCCUCGUCACUCAGCAGGGCAUCUCUGAGAGAAAUGCC [A92U A107C],0.9
3,CACGUAGGUGGUUUUCCCCUGAUAGUGCUAAGGGGGCCUGGAAGUUUGGACUGGGCAGAGCUCAACACAGCGUGGCAAAGUGGCUGUGGCUAGACUGCCUCUCUGGAUUCCUCGUCACUCUGCAGGGCAUCUCUGAGAGAAAUGCC [U1C A121U],1.06
4,UACGUAGGUGGUUUUCCCCUGAUAGUGCUAAGGGGGCCUGGAAGUCUGGACUGGGCAGAGCUCAACACAGCGUGGCAAAGUGGCUGUGGCUAGACUGCCUCUCAGGAUUCCUCGUCACUCAGCAGGGCAUCUCUGAGAGAAAUGCC [U46C U104A],1.11
5,UACGUAGGUGGUUUUCCCCUGAUAGUGCUACGGGGGCCUGGAAGCUUGGACUGGGCAGAGCUCAACACAGCGUGGCAAAGUGGCUGUGGCUAGACUGCCUCUCUGGAUUCCUCGUCACUCAGCAGGGCAUCUCUGAGAGAAAUGCC [A31C U45C],1.84
6,UACGUAGGUGGUUUUCCCCUGAUAGUGCUAAGGGGGCCUGGAAGUUUGGACUGGGCAGAGCUCAACACAGCGUGGCAAAGUGGCUGUGGCUAGACUGCCCCUCUGGAUUCCUCGUCACUCAGCAGGGCAUCUCUGAGAGAACUGCC [U100C A142C],2.2
7,UACGUAGGUGGUUUUCCCCUGAUAGUGCUAAGGGGGCCUGGAAGUCUGGACUGGGCAGAGCUCAACACAGCGUGGCAAAGUGGCUGUGGCUAGACUGCCUCUCUGGAUUCCUCGUCACUCAGCAGGGCAUCCCUGAGAGAAAUGCC [U46C U132C],1.61
8,UACGUAGGUGGUUUUCCCCUGAUAGUGCUAAGGGGGCCUGAAAGUUUGGACUGGGCAGAGCUCAACACAGCGUGGCAAAGUGGCUGUGGCUAGGCUGCCUCUCUGGAUUCCUCGUCACUCAGCAGGGCAUCUCUGAGAGAAAUGCC [G41A A94G],0.13
9,UACGUAGGUGGUUUUCCCCUGAUAGUGCUAAGGGGGCCUGGAAGUUUGGACUGGGCAGAGCUCAACACAGCGUGGCAAAGUGGCUGUGGCUAGACUGCCACUCUGGAUUCCUCGUCACUCAGCCGGGCAUCUCUGAGAGAAAUGCC [U100A A124C],1.28
10,UACGUAGGUGGGUUUCCCCUGAUAGUGCUAAGGGGGCCUGGAAGUUUGGACUGGGCAGAGCUCAACGCAGCGUGGCAAAGUGGCUGUGGCUAGACUGCCUCUCUGGAUUCCUCGUCACUCAGCAGGGCAUCUCUGAGAGAAAUGCC [U12G A67G],0.53
11,UACGUAGGUGGUUUGCCCCUGAUAGUGCUAGGGGGGCCUGGAAGUUUGGACUGGGCAGAGCUCAACACAGCGUGGCAAAGUGGCUGUGGCUAGACUGCCUCUCUGGAUUCCUCGUCACUCAGCAGGGCAUCUCUGAGAGAAAUGCC [U15G A31G],0.79
12,CACGUAGGUGGUUUUCCCCUGAUAGUGCUAAGGGGGCCUGGAAGUUUGGACUGGGCAGAGCUCAACACAACGUGGCAAAGUGGCUGUGGCUAGACUGCCUCUCUGGAUUCCUCGUCACUCAGCAGGGCAUCUCUGAGAGAAAUGCC [U1C G70A],0.04
13,UACGUAGGUGGUUUUCCCCUGAUAGUGCUAAGGGGGCCUGGAAGUUUGGACUGGGCAGAGCUCAACACAGCGUGGCAAAGUGCCUGUGGCUAGACUGCCUCUCUGGAUUCCUCGUCACUCAGCAGGGCAUCUCUGAGAGAAAGGCC [G83C U143G],1.08
14,UACGUAGGUGGUUUUCCCCUGAUAGUGCUAAGGGGGCCUGGAAGUUCGGACUGGGCAGAGCUCAACACAGCGUGGCAAAGUAGCUGUGGCUAGACUGCCUCUCUGGAUUCCUCGUCACUCAGCAGGGCAUCUCUGAGAGAAAUGCC [U47C G82A],2.09
15,UACGUAGGUGGUUUUCCCCUGAUGGUGCUAAGGGGGCCUGGAAGUUUGGACUGGGCAGAGCUCAACACAGCGUGGCAAAGUGGCUGUGGCUAGACUGCCUCUCUGGAUUCCUCGUCACUCAGCAGGGCAUCCCUGAGAGAAAUGCC [A24G U132C],1.17
16,UACGUAGGUGGUUUUCCCCUGAUAGUGCUAAGGGGGCCUGGAAGUUUGGACUGGGCAGAGCUCAACACAGCGAGGCAAAGUGGCUGUGGCUAGACUACCUCUCUGGAUUCCUCGUCACUCAGCAGGGCAUCUCUGAGAGAAAUGCC [U73A G97A],0.11
17,UACGUAGGUGGUUUCCCCCUGAUAGUGCUAAGGGGGCCUGGAAGUUUGGACUGGGCAGAGCUCAACACAGCGUGGCAAAGUGGCUAUGGCUAGACUGCCUCUCUGGAUUCCUCGUCACUCAGCAGGGCAUCUCUGAGAGAAAUGCC [U15C G86A],0.06
18,UACGUAGGUGGUUUUCCCCUGAUAGUGCUAAGGGGGCCUGGAAGUUUGGACUAGGCAGAGCUCAACACAGCGUGGCAAAGUGGCUGUGGCUAGACUGCCUCUCUGGAUUCCUCGUCACUCAGCAGGGCAUCUCAGAGAGAAAUGCC [G53A U134A],1.23
19,UACGUAGGUGGUUUUCCCCUGAUAGUGCUAAGGGGGCCUGGAAGUUCGGACUGGGCAGAGCUCAACACAGCGUGGCAAAGUGGCUGUGGCUAGACUGCCUCUCUGGAUUCCUCGUCUCUCAGCAGGGCAUCUCUGAGAGAAAUGCC [U47C A117U],1.33

# Reference: the RNAGym collection of RNA variant scans (doi:10.7554/elife.90254)
